Assay results from paper PMC5940202, “A novel α-galactosidase from the thermophilic probiotic Bacillus coagulans with remarkable protease-resistance and high hydrolytic activity” (PLoS ONE, 2018).
Values belong to the molecule of their own block, whether it stands above or below them.

What was measured:
[1] = target: α-galactosidase Aga-BC7050 from Bacillus coagulans ATCC 7050 (Bacillus coagulans ATCC 7050); assay: SEC; analytical gel filtration, Superdex 200 Increase 10/300 GL, 10 mM phosphate buffer, 0.14 M NaCl, pH 7.4, 0.75 mL/min, room temperature; calibrated with albumin, lactate dehydrogenase, catalase, ferritin, thyroglobulin; native mass compared with SDS-PAGE mass
[2] = target: T1, Aga-BC7050 (Heyndrickxia coagulans, UniProt A0A8B4BWV9); assay: pNPGal hydrolysis with added sugar; assay type: biochemical; conditions: substrate pNPGal; McIlvaine buffer; galactose is also the reaction product
T1 construct: GH36 homodimer, 168 kDa by gel filtration; predicted nucleophile Asp477, acid/base Asp547
T1 sequence (A0A8B4BWV9 1-730): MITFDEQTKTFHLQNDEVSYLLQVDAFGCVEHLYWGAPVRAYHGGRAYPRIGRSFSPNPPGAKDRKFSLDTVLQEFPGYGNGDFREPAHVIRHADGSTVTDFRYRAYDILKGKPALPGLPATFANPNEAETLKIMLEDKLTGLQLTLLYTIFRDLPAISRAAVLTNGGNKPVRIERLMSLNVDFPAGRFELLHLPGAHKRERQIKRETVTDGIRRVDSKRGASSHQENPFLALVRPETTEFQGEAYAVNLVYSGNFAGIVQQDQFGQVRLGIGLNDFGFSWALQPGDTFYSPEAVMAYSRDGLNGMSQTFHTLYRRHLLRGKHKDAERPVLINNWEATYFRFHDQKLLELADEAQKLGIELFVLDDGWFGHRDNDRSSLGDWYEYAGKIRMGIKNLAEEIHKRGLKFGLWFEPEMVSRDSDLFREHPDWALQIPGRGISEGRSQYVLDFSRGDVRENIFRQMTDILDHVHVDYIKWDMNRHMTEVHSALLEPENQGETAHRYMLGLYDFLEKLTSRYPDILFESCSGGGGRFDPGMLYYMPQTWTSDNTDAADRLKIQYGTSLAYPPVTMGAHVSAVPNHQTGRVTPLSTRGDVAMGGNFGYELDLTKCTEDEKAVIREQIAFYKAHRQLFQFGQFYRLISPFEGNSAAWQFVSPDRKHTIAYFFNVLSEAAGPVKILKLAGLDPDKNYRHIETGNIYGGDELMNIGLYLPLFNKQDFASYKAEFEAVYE

[3] = substrate: OC[C@H]1O[C@H](OC[C@H]2O[C@H](O[C@]3(CO)O[C@H](CO)[C@@H](O)[C@@H]3O)[C@H](O)[C@@H](O)[C@@H]2O)[C@H](O)[C@@H](O)[C@H]1O; assay: purified protein; assay type: biochemical, Heyndrickxia coagulans; conditions: McIlvaine buffer pH 6.0, 55 °C
[4] = substrate: O=[N+]([O-])c1ccc(O[C@H]2O[C@H](CO)[C@H](O)[C@H](O)[C@H]2O)cc1; assay: purified protein; assay type: biochemical, Heyndrickxia coagulans; conditions: McIlvaine buffer pH 6.0, 55 °C

- stoichiometry N [1]: 2
Molecule: α-galactosidase Aga-BC7050 from Bacillus coagulans ATCC 7050 (enzyme)

- % decrease of activity at 100 mM [2]: 24.4%
Molecule: OC[C@H]1OC(O)[C@H](O)[C@@H](O)[C@H]1O (stereo partly shown) [galactose]

B1: Aga-BC7050 (Heyndrickxia coagulans DSM 1 = ATCC 7050) (protein)
chain: MITFDEQTKTFHLQNDEVSYLLQVDAFGCVEHLYWGAPVRAYHGGRAYPRIGRSFSPNPPGAKDRKFSLDTVLQEFPGYGNGDFREPAHVIRHADGSTVTDFRYRAYDILKGKPALPGLPATFANPNEAETLKIMLEDKLTGLQLTLLYTIFRDLPAISRAAVLTNGGNKPVRIERLMSLNVDFPAGRFELLHLPGAHKRERQIKRETVTDGIRRVDSKRGASSHQENPFLALVRPETTEFQGEAYAVNLVYSGNFAGIVQQDQFGQVRLGIGLNDFGFSWALQPGDTFYSPEAVMAYSRDGLNGMSQTFHTLYRRHLLRGKHKDAERPVLINNWEATYFRFHDQKLLELADEAQKLGIELFVLDDGWFGHRDNDRSSLGDWYEYAGKIRMGIKNLAEEIHKRGLKFGLWFEPEMVSRDSDLFREHPDWALQIPGRGISEGRSQYVLDFSRGDVRENIFRQMTDILDHVHVDYIKWDMNRHMTEVHSALLEPENQGETAHRYMLGLYDFLEKLTSRYPDILFESCSGGGGRFDPGMLYYMPQTWTSDNTDAADRLKIQYGTSLAYPPVTMGAHVSAVPNHQTGRVTPLSTRGDVAMGGNFGYELDLTKCTEDEKAVIREQIAFYKAHRQLFQFGQFYRLISPFEGNSAAWQFVSPDRKHTIAYFFNVLSEAAGPVKILKLAGLDPDKNYRHIETGNIYGGDELMNIGLYLPLFNKQDFASYKAEFEAVYE
notes: GH36 homodimer, 168 kDa by gel filtration; predicted nucleophile Asp477, acid/base Asp547
- Km [3]: 53.7 ± 0.9 mM
- Vmax [3]: 1140 µmol/min/mg
- kcat [3]: 1610 ± 53.4 s⁻¹
- kcat/Km [3]: 30500 M⁻¹ s⁻¹
- Km [4]: 1.1 ± 0.2 mM
- Vmax [4]: 655 µmol/min/mg
- kcat [4]: 942 ± 73.9 s⁻¹
- kcat/Km [4]: 844000 M⁻¹ s⁻¹
